Data on 4 molecules can be found in patent publication US20230406950A1 (LYVGEN BIOPHARMA, published 2023).

Assay [1] addresses T1, human PD-1 expressed on cells (human, UniProt Q15116 25-288).
T1 construct: whole, on cells; also called human PD-1 over-expressed on the CHO cells; Jurkat/NFkB-Luci/PD-1 cells
Nature of the assay: flow cytometry (FACS), MFI, CHO cells expressing human PD-1. The procedure:
(§1) Exemplary anti-PD-1/CD137 bi-specific antibodies were analyzed by FACS for their binding properties to human PD-1 and/or human CD137 expressed on CHO cells. Briefly, cultured cells were harvested, counted and cell viability was evaluated using the Trypan Blue exclusion method. Viable cells were then adjusted to 2×10⁶ cells per mL in PBS containing 2% BSA. 100 μL of this cell suspension were further aliquoted per well into a V-bottom 96-well plate. […] After incubation for 2 hours at 4° C., cells were centrifuged (3 min, 1000× g), washed with 250 μL/well BSA-containing FACS Stain Buffer, resuspended and incubated for an additional 1 hour at 4° C. with 100 μL/well fluorochrome-conjugated anti-IgG antibody for detection of the bisepecific antibody. Cells were then washed with 250 μL/well BSA-containing FACS Stain Buffer, resuspended in 100 μL/well FACS Stain Buffer, acquired and analyzed using a FACS machine. Binding of the bispecific antibodies to human PD-1 or human CD137 expressing CHO cells were evaluated and the mean fluorescence intensity is plotted in histograms or dot plots.

Assay [2] concerns the target T2, human CD137 ECD protein (His tag) (human, UniProt Q07011 24-186).
T2 construct: extracellular domain; also called recombinant human CD137; not shown: His tag
As to the kind of experiment: bridging ELISA: human CD137 ECD (His tag) coated, antibody titrated, then human PD-1 ECD (mouse IgG2a Fc tag), HRP anti-mouse IgG2a Fc; A450-A620. As for the experimental part:
Exemplary anti-PD-1/CD137 bi-specific antibodies were analyzed by ELISA for their simultaneous binding to recombinant human PD-1 and human CD137. Briefly, human CD137 ECD protein (His tag) was diluted and coated onto an ELISA plate with a volume of 100 μL/well by incubation at 4° C. overnight. The next day, the plate was blocked with PBST-BSA buffer, then serially diluted samples of anti-PD-1/CD137 bi-specific antibodies were pipetted into appropriate wells at 50 μL/well, and the plate was incubated for 1 hour followed by washing. The extracellular domain (ECD) of human PD-1 protein (mouse IgG2a Fc tag) was added into the plate at 50 μL/well. After 1-hour incubation at room temperature, HRP-conjugated anti-Mouse IgG, Fc G2a specific antibody was added into the plate at 100 μL/well. The plate was incubated for 1 hour at room temperature followed by washing. TMB substrate solution was added at 100 μL/well and the color development was stopped by adding 100 uL/well Stop Solution (2N H₂SO₄). Absorbance at 450 nm and 620 nm was read by Tecan F200 Pro plate reader. GraphPad 7.0, “[Agonist] vs. response—Variable slope (four parameters)” was used to plot the binding data and calculate binding EC50 values.
On the technique in general: In an ELISA, binding on a coated surface is turned into a signal by an enzyme label.

For assay [3], the target named is T3, human CD137 expressed on cells (human, UniProt Q07011 24-255).
T3 construct: whole, on cells; also called 4-1BB; TNFRSF9
T3 sequence (Q07011 24-255): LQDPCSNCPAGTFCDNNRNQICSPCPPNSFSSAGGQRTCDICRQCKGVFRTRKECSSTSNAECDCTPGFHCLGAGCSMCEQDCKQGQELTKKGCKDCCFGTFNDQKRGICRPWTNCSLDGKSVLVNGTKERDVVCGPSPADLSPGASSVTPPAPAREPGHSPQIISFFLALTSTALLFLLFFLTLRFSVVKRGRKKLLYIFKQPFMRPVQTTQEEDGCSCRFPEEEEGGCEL
Nature of the assay: flow cytometry (FACS), MFI, CHO cells expressing human CD137. As for the experimental part: as §1
(In flow cytometry, cells or beads pass a laser one at a time.)

T1 sequence (Q15116 25-288): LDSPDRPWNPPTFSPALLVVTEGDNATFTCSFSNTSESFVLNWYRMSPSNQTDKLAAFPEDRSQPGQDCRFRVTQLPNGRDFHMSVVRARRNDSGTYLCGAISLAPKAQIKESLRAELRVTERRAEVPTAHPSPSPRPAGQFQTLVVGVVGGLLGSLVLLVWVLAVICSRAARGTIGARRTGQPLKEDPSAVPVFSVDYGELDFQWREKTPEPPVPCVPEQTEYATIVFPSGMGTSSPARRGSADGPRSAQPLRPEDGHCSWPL

B1: Ly460 (bispecific antibody, human IgG1, kappa)
heavy: QVTLKESGPALVKPTQTLTLTCTFSGFSLSTSGTCVSWIRQPPGKALEWLATICWEDSKGYNPSLKSRLTISKDTSKNQAVLTMTNMDPVDTATYYCARREDSGYFWFPYWGQGTLVTVSSASTKGPSVFPLAPSSKSTSGGTAALGCLVKDYFPEPVTVSWNSGALTSGVHTFPAVLQSSGLYSLSSVVTVPSSSLGTQTYICNVNHKPSNTKVDKKVEPKSCDKTHTCPPCPAPELLGPSVFLFPPKPKDTLMISRTPEVTCVVVDVSHEDPEVKFNWYVDGVEVHNAKTKPREEQYNSTYRVVSVLTVLHQDWLNGKEYKCKVSNKALPAPIEKTISKAKGQPREPQVYTLPPSREEMTKNQVSLTCLVKGFYPSDIAVEWESNGQPENNYKTTPPVLDSDGSFFLYSKLTVDKSRWQQGNVFSCSVMHEALHNHYTQKSLSLSPGGGGGSGGGGSGGGGSGGGGSDIQMTQSPSSLSASVGDRVTITCRASQDIRSNLNWYQQKPGGAVKLLIYYTSRLHSGVPSRFSGSGSGTDYTLTISSLQPEDFATYFCQQSEKLPRTFGGGTKVEIRRTVAAPSVFIFPPSDEQLKSGTASVVCLLNNFYPREAKVQWKVDNALQSGNSQESVTEQDSKDSTYSLSSTLTLSKADYEKHKVYACEVTHQGLSSPVTKSFNRGEC
light: NIQMTQSPSSLSASVGDRVTITCKAGQNVNNYLAWYQQKPGKAPKVLIFNANSLQTGVPSRFSGSGSGTDFTLTISSLQPEDFATYYCQQYNSWPTFGGGTKVEIKRTVAAPSVFIFPPSDEQLKSGTASVVCLLNNFYPREAKVQWKVDNALQSGNSQESVTEQDSKDSTYSLSSTLTLSKADYEKHKVYACEVTHQGLSSPVTKSFNRGEC
chain: QVQLVQSGAEVKKPGASVKVSCKASGYTFAGFEMHWVRQAPGQGLEWMGAIDPKTGGTDYNQKFKDRVTMTRDTSISTAYMELSRLRSDDTAVYYCARDLGYFDVWGQGTLVTVSSASTKGPSVFPLAPSSKSTSGGTAALGCLVKDYFPEPVTVSWNSGALTSGVHTFPAVLQSSGLYSLSSVVTVPSSSLGTQTYICNVNHKPSNTKVDKKVEPKSCDK
notes: Three-chain format: Ly516 heavy chain fused to Ly1630 light chain; Ly516 light chain; Ly1630 VH-CH1
As usually defined, the EC50 (read off the curve) is the concentration needed to bring the measured effect to its halfway point. Read a high EC50 (read off the curve) as a need for much substance. B1: in assay [1], the “EC50 (read off the curve)” value is about 0.2 µg/mL. Moreover, the binding result in assay [2] and in assay [3] was “binds” in each case.

B2: Ly510 (bispecific antibody, human IgG2, kappa)
heavy: QVTLKESGPALVKPTQTLTLTCTFSGFSLSTSGTCVSWIRQPPGKALEWLATICWEDSKGYNPSLKSRLTISKDTSKNQAVLTMTNMDPVDTATYYCARREDSGYFWFPYWGQGTLVTVSSASTKGPSVFPLAPCSRSTSESTAALGCLVKDYFPEPVTVSWNSGALTSGVHTFPAVLQSSGLYSLSSVVTVPSSNFGTQTYTCNVDHKPSNTKVDKTVERKCCVECPPCPAPPVAPSVFLFPPKPKDTLMISRTPEVTCVVVDVSHEDPEVQFNWYVDGVEVHNAKTKPREEQFNSTFRVVSVLTVVHQDWLNGKEYKCKVSNKGLPAPIEKTISKTKGQPREPQVYTLPPSREEMTKNQVSLTCLVKGFYPSDIAVEWESNGQPENNYKTTPPMLDSDGSFFLYSKLTVDKSRWQQGNVFSCSVMHEALHNHYTQKSLSLSPGGGGGSGGGGSGGGGSGGGGSDIQMTQSPSSLSASVGDRVTITCRASQDIRSNLNWYQQKPGGAVKLLIYYTSRLHSGVPSRFSGSGSGTDYTLTISSLQPEDFATYFCQQSEKLPRTFGGGTKVEIRGGGGSGGGGSGGGGSGGGGSQVQLVQSGAEVKKPGASVKVSCKASGYTFAGFEMHWVRQAPGQGLEWMGAIDPKTGGTDYNQKFKDRVTMTRDTSISTAYMELSRLRSDDTAVYYCARDLGYFDVWGQGTLVTVSS
light: NIQMTQSPSSLSASVGDRVTITCKAGQNVNNYLAWYQQKPGKAPKVLIFNANSLQTGVPSRFSGSGSGTDFTLTISSLQPEDFATYYCQQYNSWPTFGGGTKVEIKRTVAAPSVFIFPPSDEQLKSGTASVVCLLNNFYPREAKVQWKVDNALQSGNSQESVTEQDSKDSTYSLSSTLTLSKADYEKHKVYACEVTHQGLSSPVTKSFNRGEC
notes: Anti-PD-1/CD137: Ly516 heavy chain (other constant region than Ly456) fused to Ly1630 scFv (VL-VH); Ly516 light chain
For B2, the “EC50 (read off the curve)” value in assay [1] is about 0.2 µg/mL; in assay [2], about 0.02 µg/mL.

B3: Ly456 (bispecific antibody, human IgG1, kappa)
heavy: QVTLKESGPALVKPTQTLTLTCTFSGFSLSTSGTCVSWIRQPPGKALEWLATICWEDSKGYNPSLKSRLTISKDTSKNQAVLTMTNMDPVDTATYYCARREDSGYFWFPYWGQGTLVTVSSASTKGPSVFPLAPSSKSTSGGTAALGCLVKDYFPEPVTVSWNSGALTSGVHTFPAVLQSSGLYSLSSVVTVPSSSLGTQTYICNVNHKPSNTKVDKKVEPKSCDKTHTCPPCPAPELLGPSVFLFPPKPKDTLMISRTPEVTCVVVDVSHEDPEVKFNWYVDGVEVHNAKTKPREEQYNSTYRVVSVLTVLHQDWLNGKEYKCKVSNKALPAPIEKTISKAKGQPREPQVYTLPPSREEMTKNQVSLTCLVKGFYPSDIAVEWESNGQPENNYKTTPPVLDSDGSFFLYSKLTVDKSRWQQGNVFSCSVMHEALHNHYTQKSLSLSPGGGGGSGGGGSGGGGSGGGGSDIQMTQSPSSLSASVGDRVTITCRASQDIRSNLNWYQQKPGGAVKLLIYYTSRLHSGVPSRFSGSGSGTDYTLTISSLQPEDFATYFCQQSEKLPRTFGGGTKVEIRGGGGSGGGGSGGGGSGGGGSQVQLVQSGAEVKKPGASVKVSCKASGYTFAGFEMHWVRQAPGQGLEWMGAIDPKTGGTDYNQKFKDRVTMTRDTSISTAYMELSRLRSDDTAVYYCARDLGYFDVWGQGTLVTVSS
light: NIQMTQSPSSLSASVGDRVTITCKAGQNVNNYLAWYQQKPGKAPKVLIFNANSLQTGVPSRFSGSGSGTDFTLTISSLQPEDFATYYCQQYNSWPTFGGGTKVEIKRTVAAPSVFIFPPSDEQLKSGTASVVCLLNNFYPREAKVQWKVDNALQSGNSQESVTEQDSKDSTYSLSSTLTLSKADYEKHKVYACEVTHQGLSSPVTKSFNRGEC
notes: Anti-PD-1/CD137: Ly516 heavy chain fused at C-terminus to Ly1630 scFv (VL-VH); Ly516 light chain
Take B3: the “EC50 (read off the curve)” value in assay [1] is about 0.2 µg/mL; in assay [2], about 0.02 µg/mL.

B4: Ly512 (bispecific antibody, human IgG2, kappa)
heavy: QVTLKESGPALVKPTQTLTLTCTFSGFSLSTSGTCVSWIRQPPGKALEWLATICWEDSKGYNPSLKSRLTISKDTSKNQAVLTMTNMDPVDTATYYCARREDSGYFWFPYWGQGTLVTVSSASTKGPSVFPLAPCSRSTSESTAALGCLVKDYFPEPVTVSWNSGALTSGVHTFPAVLQSSGLYSLSSVVTVPSSNFGTQTYTCNVDHKPSNTKVDKTVERKCCVECPPCPAPPVAPSVFLFPPKPKDTLMISRTPEVTCVVVDVSHEDPEVQFNWYVDGVEVHNAKTKPREEQFNSTFRVVSVLTVVHQDWLNGKEYKCKVSNKGLPAPIEKTISKTKGQPREPQVYTLPPSREEMTKNQVSLTCLVKGFYPSDIAVEWESNGQPENNYKTTPPMLDSDGSFFLYSKLTVDKSRWQQGNVFSCSVMHEALHNHYTQKSLSLSPGK
light: NIQMTQSPSSLSASVGDRVTITCKAGQNVNNYLAWYQQKPGKAPKVLIFNANSLQTGVPSRFSGSGSGTDFTLTISSLQPEDFATYYCQQYNSWPTFGGGTKVEIKRTVAAPSVFIFPPSDEQLKSGTASVVCLLNNFYPREAKVQWKVDNALQSGNSQESVTEQDSKDSTYSLSSTLTLSKADYEKHKVYACEVTHQGLSSPVTKSFNRGECGGGGSGGGGSGGGGSGGGGSDIQMTQSPSSLSASVGDRVTITCRASQDIRSNLNWYQQKPGGAVKLLIYYTSRLHSGVPSRFSGSGSGTDYTLTISSLQPEDFATYFCQQSEKLPRTFGGGTKVEIRGGGGSGGGGSGGGGSGGGGSQVQLVQSGAEVKKPGASVKVSCKASGYTFAGFEMHWVRQAPGQGLEWMGAIDPKTGGTDYNQKFKDRVTMTRDTSISTAYMELSRLRSDDTAVYYCARDLGYFDVWGQGTLVTVSS
notes: Anti-PD-1/CD137: Ly516 heavy chain; Ly516 light chain fused to Ly1630 scFv (VL-VH)
In the case of B4, the “EC50 (read off the curve)” value in assay [1] was about 0.1 µg/mL; in assay [2] it was about 0.02 µg/mL.
